Laboratory results: paper PMC5351860, “Novel fimbrilin PGN_1808 in Porphyromonas gingivalis” (PLoS ONE, 2017)

Molecular target: the molecule itself
Test: SDS-PAGE after partial denaturation; fractionated fimbriae in loading buffer with 1% SDS and 0.5 M 2-mercaptoethanol heated at 37, 60 and/or 80°C for 10 min; CBB staining and western blotting

B1: Mfa1 (Mfa1 fimbriae purified from the fimA gene-deletion mutant of P. gingivalis ATCC 33277) (natural protein)
chain: AGDGQDQANPDYHYVGEWAGKDKIEKVSIYMVPQGGPGLVESAEDLDFGTYYENPTIDPATHNAILKPKKGIKVNSAVGKTVKVYVVLNDIAGKAKALLANVNAADFDAKFKEIIELSTQAQALGTVADGPNPATAAGKIAKKNGTTDETIMMTCLQPSDALTIEAAVSEANAIAGIKNQAKVTVERSVARAMVSTKAQSYEIKATTQIGEIAAGSVLATITDIRWVVAQGERRQYLSKKRGTVPENTWVTPGSGFVPTSSTFHTNATEYYDYAGLWEDHNTNEAVISGTQVPTLADYQLQDVTGELANALSGKFLLPNTHKSGANAASSDYKRGNTAYVLVRAKFTPKKEAFIDRGKTYSDNTAVPEYVAGEDFFVGENGQFYVSMKSVTDPKVGGVAGMKAHKYVKGKVLYYAWLNPSTTSPDSWWNSPVVRNNIYHIHIKSIKKLGFNWNPLVPDPDPSNPENPNNPDPNPDEPGTPVPTDPENPLPDQDTFMSVEVTVLPWKVHSYEVDL
notes: source: fimA gene-deletion mutant derived from P. gingivalis ATCC 33277; fractionated by ammonium sulfate precipitation and DEAE Sepharose chromatography
  binding result: binds
